# Source: patent US20220411487A1 (Regeneron, published 2022)
# Numbering of substitutions follows the chain as printed. In names and notes the source's numbering stands.
# T1: full length cynomolgous monkey TMPRSS6 on HEK293 cells (HEK293/mfTMPRSS6) (cynomolgous monkey/Macaca fascicularis, UniProt Q8IU80 10-811 (human entry))
# T1 chain: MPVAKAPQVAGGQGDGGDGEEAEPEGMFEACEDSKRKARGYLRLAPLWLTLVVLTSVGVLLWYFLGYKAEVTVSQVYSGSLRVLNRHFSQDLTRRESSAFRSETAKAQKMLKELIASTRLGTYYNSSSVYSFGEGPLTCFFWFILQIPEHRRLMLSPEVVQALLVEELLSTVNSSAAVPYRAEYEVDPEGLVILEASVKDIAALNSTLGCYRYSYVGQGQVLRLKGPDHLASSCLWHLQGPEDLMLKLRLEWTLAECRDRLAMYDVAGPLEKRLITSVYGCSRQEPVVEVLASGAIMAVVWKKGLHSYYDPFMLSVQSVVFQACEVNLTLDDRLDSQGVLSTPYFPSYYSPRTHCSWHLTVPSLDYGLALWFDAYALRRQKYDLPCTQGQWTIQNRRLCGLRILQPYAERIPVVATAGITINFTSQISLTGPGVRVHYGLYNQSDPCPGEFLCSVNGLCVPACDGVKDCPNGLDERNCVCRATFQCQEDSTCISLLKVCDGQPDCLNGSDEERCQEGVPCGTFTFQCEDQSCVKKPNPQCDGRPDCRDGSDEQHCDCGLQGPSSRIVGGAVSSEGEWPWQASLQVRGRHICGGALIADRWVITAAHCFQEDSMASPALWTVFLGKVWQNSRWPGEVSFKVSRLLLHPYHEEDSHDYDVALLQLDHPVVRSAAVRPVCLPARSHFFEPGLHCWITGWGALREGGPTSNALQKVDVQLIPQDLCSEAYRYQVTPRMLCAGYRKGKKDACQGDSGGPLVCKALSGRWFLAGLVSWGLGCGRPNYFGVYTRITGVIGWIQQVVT
# T2: full length human TMPRSS6 on HEK293 cells (HEK293/hTMPRSS6) (human, UniProt Q8IU80 10-811)
# T2 sequence (looked up): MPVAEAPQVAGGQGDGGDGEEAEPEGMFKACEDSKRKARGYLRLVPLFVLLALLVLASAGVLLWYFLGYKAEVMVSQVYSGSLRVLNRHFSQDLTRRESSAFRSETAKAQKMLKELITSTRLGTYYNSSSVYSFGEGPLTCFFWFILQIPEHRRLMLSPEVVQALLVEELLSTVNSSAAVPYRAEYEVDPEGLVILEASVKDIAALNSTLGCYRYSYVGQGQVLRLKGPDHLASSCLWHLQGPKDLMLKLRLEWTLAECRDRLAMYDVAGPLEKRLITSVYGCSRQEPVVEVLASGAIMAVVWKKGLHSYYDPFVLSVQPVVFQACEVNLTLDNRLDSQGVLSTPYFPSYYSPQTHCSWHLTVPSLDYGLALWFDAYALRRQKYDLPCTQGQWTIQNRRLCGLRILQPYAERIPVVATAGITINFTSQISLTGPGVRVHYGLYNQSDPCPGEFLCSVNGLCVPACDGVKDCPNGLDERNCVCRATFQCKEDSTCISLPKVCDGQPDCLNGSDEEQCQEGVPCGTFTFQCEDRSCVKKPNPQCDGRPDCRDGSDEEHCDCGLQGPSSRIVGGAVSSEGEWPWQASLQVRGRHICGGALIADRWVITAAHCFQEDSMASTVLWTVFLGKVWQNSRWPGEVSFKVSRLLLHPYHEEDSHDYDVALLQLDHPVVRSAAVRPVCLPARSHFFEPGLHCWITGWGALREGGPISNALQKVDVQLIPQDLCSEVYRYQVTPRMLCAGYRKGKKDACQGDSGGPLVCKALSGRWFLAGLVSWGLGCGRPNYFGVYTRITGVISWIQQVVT
# B1: REGN7999 (antibody, human IgG4 S228P, kappa, V domains shown)
# VH: EVQLVESGGGLVQPGGSLRLSCAASGFTFSSYAMTWVRQAPGKGLEWVSAISGSDTSTYYADSVKGRFTISRDNSKNTLFLQMNSLRAEDTAVYYCAKHQDYDFSYYYSAMDVWGQGTTVTVSS
# VL: DIQMTQSPSSLSASVGDRVIITCRASQDFNSWLAWYQQKPGKAPKLLIYAASSLQSGVPSRFSGSGSGTDFTLTISSLQPEDFATYYCQQTDSFPFTFGPGTKVDIKR
# notes: fully human; human IgG4 Fc with hinge S108P; also called mAb41450
# B2: REGN7969 (antibody, human IgG4 S228P, kappa, V domains shown)
# VH: QVQLVESGGGVVQPGRSLRLSCAASGFTFNNYGMHWVRQAPGKGLEWVAIISYDGSNEYYSDSVKGRFTISRDNSKNTLYLQMNSLRAEDTAVYYCARDQDYGGNLFHYWGQGTLVTVSS
# VL: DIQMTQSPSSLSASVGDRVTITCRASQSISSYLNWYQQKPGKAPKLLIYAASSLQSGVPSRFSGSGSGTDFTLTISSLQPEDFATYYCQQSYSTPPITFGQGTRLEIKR
# notes: fully human; human IgG4 Fc with hinge S108P; also called mAb37746
# B3: REGN7971 (antibody, human IgG4 S228P, kappa, V domains shown)
# VH: B2 VH with N30S, N31T, E58D, S61L, S85N, R98K, D101G, H108A, Y109S
# VL: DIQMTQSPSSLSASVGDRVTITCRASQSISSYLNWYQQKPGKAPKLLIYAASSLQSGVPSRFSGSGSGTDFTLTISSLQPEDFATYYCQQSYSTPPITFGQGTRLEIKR
# notes: fully human; human IgG4 Fc with hinge S108P; also called mAb37763
# B4: REGN8023 (antibody, human IgG4 S228P, kappa, V domains shown)
# VH: EVQLVESGGGLVKPGGSLRISCAASGFIFVDYAMHWVRQAPGKGLEWVSGISWNSGSIGYADSVKGRFTISRDNAKKSLYLQMSGLRPEDTALYYCVKSGFYYVRSYFDNWGQGTLVTVSS
# VL: DIVMTQSPLSLPVTPGEPASISCRSSQSLLDSDDGNTYLDWYLRKPGQSPQLLIYTLSYRASGVPDRFSGSGSGTDFTLKISRVEADDVGVYYCMQRIEFPLTFGGGTKVEIKR
# notes: fully human; human IgG4 Fc with hinge S108P; also called mAb37699
# B5: REGN7974 (antibody, human IgG4 S228P, kappa, V domains shown)
# VH: EVQLVESGGGLVQPGRSLRLSCIASGFNFGDYGMSWVRQAPGKGLEWVGFIRSKAYGGTTEYAASVKGRFTISRDDSKSIAYLQMNSLKTEDAAMYYCSRDYYDILTGYYGDYWGQGTLVTVSS
# VL: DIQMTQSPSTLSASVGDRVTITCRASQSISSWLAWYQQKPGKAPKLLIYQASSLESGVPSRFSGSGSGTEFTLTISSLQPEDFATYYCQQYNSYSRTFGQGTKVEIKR
# notes: fully human; human IgG4 Fc with hinge S108P; also called mAb41422
# B6: REGN7977 (antibody, V domains shown)
# VH: EVQLVESGGGLVKPGGSLRVSCAASGVTFSNVWMSWVRQVPGKGLEWVGRIKSKTDGGTTDYAAPVKGRFTISKDDSKNTLFLQMNSLKTEDTAVYYCTTETGDFWSGYYPRFQHWGQGTLVTVSS
# VL: DIQMTQSPSSLSASVGDRVTITCRASQYISTYLNWYQQKPGKAPSLLIYAASSLQSGVPSRFSGSGSGTDFTLTISSLQPEDFASYSCQQSYSTPPYTFGQGTKLEIKR
# notes: fully human; human IgG4 Fc with hinge S108P; also called mAb41465
# Target: T1, full length cynomolgous monkey TMPRSS6 …
# Test: cell-based or functional assay
"% inhibition, HEK293 bioassay, overnight pre-incubation 37 C [%]","IC50, HEK293 bioassay, overnight pre-incubation 37 C [nM]",Binder
91,21,B1
89,13,B2
89,6,B3
91,2.8,B4
31,> 10,B5
81,> 10,B6

# Target: T2, full length human TMPRSS6 on HEK293 …
# Test: cell-based or functional assay
"% inhibition, HEK293 bioassay, overnight pre-incubation 37 C [%]","IC50, HEK293 bioassay, overnight pre-incubation 37 C [nM]",Binder
89,2.1,B1
88,1.2,B2
90,1.4,B3
90,1.1,B4
86,2.6,B5
87,1.7,B6
